# Test: soluble on expression in E. coli; label from the status in PepcDB or PDB records
row,Sequence,soluble on expression in E. coli
1,DIVMTQTPKFLLVSAGDKVTITCKASQSVSNDLTWYQQKPGQSPKLLIYYASNRYTGVPDRFTGSGYGTDFTFTISTVQAEDLAVYFCQQDYGSPPTFGGGTKVEIKRTVAAPSVFIFPPSDEQLKSGTASVVCLLNNFYPREAKVQWKVDNALQSGNSQESVTEQDSKDSTYSLSSTLTLSKADYEKHKVYACEVTHQGLSSPVTKSFNRGEC,soluble
2,MGSDKIHHHHHHMKYALGNILYYWPKEDVEAFYQAAVNSSADIVYLGETVCSKRRLMKVADWFNVAREVANSGKQVVISTLALLQAPSELTELRRYVENGEFLLEANDLGAVNIAAERNLPFVAGHALNCYNAYTLRVLHKQGMVRWCMPVELSRDWLQNLLNQCEELGFRHQFEVEVLSYGHLPLAYSARCFTARSEDRPKDECETCCLSYPQGRKMLSQENQQVFVLNGIQTQSGYCYNLGNELTSMRDLVDIVRLSPNDITTPAMLDTFRANEQGNMPLTLQNQADCNGYWRRVAGLELVQ,not soluble
3,MGSDKIHHHHHHMKRTPGPNKRGSKRMQPNLKFSRGEFADRLAKTRRAMEARGVDLLIVSDPSNMAWLTGYDGWSFYVHQAVIVPPSGEPVWYGRGQDANGAKRTAYLAQNNIVGYADHYVQSTERHPMDFLSSVLSDRGWGKLTIGVEMDNYWFSAAAFASLQKHLPNARFVDATALVNWQRAVKSPTEIDYMRKAARIVEAMHQRIFDRIEIGMRKCDLVAEIYDAGTRGVDGIGGDYPAIVPLLPSGVDASAPHLTWDDQPMKRGEGTFFEIAGCYNRYHCPLSRTVFLGKPTQEFLDAEKATLEGMEAGLAAAKPGNACEDIANAFFAVLKKYGIVKDNRTGYSIGLSYPPDWGERTMSLRPGDHTELKPGMTFHFMTGLWLETMGLEITESILITETGVECLANVPRKLVVKN,not soluble
4,MEGDGSDPEPPDAGEDSKSENGENAPIYCICRKPDINCFMIGCDNCNEWFHGDCIRITEKMAKAIREWYCRECREKDPKLEIRYRHKKSRERDGNERDSSEPRDEGGGRKRPVPDPDLQRRAGSGTGVGAMLARGSASPHKSSPQPLVATPSQHHQQQQQQIKRSARMCGECEACRRTEDCGHCDFCRDMKKFGGPNKIRQKCRLRQCQLRARESYKYFPSSLSPVTPSESLPRPRRPLPTQQQPQPSQKLGRIREDEGAVASSTVKEPPEATATPEPLSDEDLPLDPDLYQDFCAGAFDDHGLPWMSDTEESPFLDPALRKRAVKVKHVKRREKKSEKKVMERKEERYKRHRQKQKHKDKWKHPERADAKDPASLPQCLGPGCVRPAQPSSKYCSDDCGMKLAANRIYEILPQRIQQWQQSPCIAEEHGKKLLERIRREQQSARTRLQEMERRFHELEAIILRAKQQAVREDEESNEGDSDDTDLQIFCVSCGHPINPRVALRHMERCYAKYESQTSFGSMYPTRIEGATRLFCDVYNPQSKTYCKRLQVLCPEHSRDPKVPADEVCGCPLVRDVFELTGDFCRLPKRQCNRHYCWEKLRRAEVDLERVRVWYKLDELFEQERNVRTAMTNRAGLLALMLHQTIQHDPLTTDLRSSADR,soluble
5,MQKKSQTAQSYHPMIKEFPEFYGPLTCPGQFLALLILEFGLNFAEIQKLKWENFNWNFKYLTIEKAGIKRVLPIREKFAIRVKAINNADELFAKSRQFLYTELKKFTNYSSKEIREQYILHQVKAGKSIYELATLLGLTTITTLEKYYRLEHHHHHH,not soluble
6,MSLDETPTIHILWINAGLSCDGDSVALTAAMQPSIEEIVLGVLPGLPKIAVHWPLIDFECGPVGGSDTFIEWFFKGERGEIDPFVLVVEGSIPNESIKPEGYWCGFGDNPETGQPITTSEWIDRLAPKALAVVAIGTCATYGGIHAMAGNPTGAMGVPDYLGWDWKSQAGIPIVCVPGCPIQPDNFSETLTYLLYQAAGAAPMIPLDDKLRPTWLFGATEGHHHHHH,soluble
7,MNDMSDWKPKRFWKQAAVAETAEGYAVELDGRPVRTPAKAPLLLPTRALAEAIAAEWDAQESEVDPINMPFTRTANAAIDKVRIQQAEVADMLAAYGDSDLLCYRADSPAELVELQAQTWDPALDWAAETLGVRLRPVQGVMHQPQPASAIETLTRKVHALNPFQLAAFHDLVSLSGSLVLGFAAALNWRKADEIWQISRLDETWQEEQWGPDDEARALAAVKRAAFLHAKAAYDISTLEHHHHHH,not soluble
8,MGSDKIHHHHHHMQQEIIDFRQSQSLAGAELSRASYQRFDFGRHVHEDLHLGAVIRGAQAFNHKGTGHTLCRGDLSTLSPDECHDGIAATDTGYEVLVLSLPQWHLDRFAAELGISFGGFCQPKRKDMALYQAFVSLHRLLYQAENPLLEETALLDFFQRLLGQCSKSEKVTNTGTVKAGLSREIRLAKSLMADTPEPVTLELLGDATGLGRYRLLRHFRAQTGLSPHQWQLRLRLERAKKSLMQNDGNSLTDIAHQHGFSDLSHFTRHFRMAFLTSPSAYRRAIRN,not soluble
9,MRKLLVSLVLLIFSENVTANRVEQVHLSLSGKMDEMVVTWLTQGPLPNVTPYVMYGLSKDALRWTAKATTTSWKDQGSHGYVRYTHRATMTKMVPGDTYYYKVGSSQDMSDVYHFHQPDPTQPLRAAIFGDLSVYKGAPSIKQLTDATHDNHFDVIIHIGDIAYDLHDDEGNRGDDYMNAVQPFAAYVPYMVFAGNHESDSHFNQIINRFTMPKNGVYDNNLFWSFDYGLTHFIGLNSEYYAEIHTKEAQAQYKWLQADLAKNKAQWTIVMFHRPWYCSTKDKGGCNDYLDMLSRKGNSELPGLEKLLFDHKVDMVLYGHKHTYERMWPIYDGTGYKSSDSGHIRNAKAPVYILTGSAGCHTHEGPSDAPQSFSATRLGQYGYTRLKVYNTTHLSTYFVDTSDKVGNFMDKFYLEKD,soluble
10,AGNTSYFLRRKIFRKIMHITAPSHDQYGSSTLLVRLTNDVYLMEIMTFDFL,not soluble
11,ADFEVHMLNKGKDGAFVFEPASLKVAPGDTVTFIPTDKGHNVETIKGMIPDGAEAFKSKINENYKVTFTAPGVYGVKCTPHYGMGMVGVVQVGDAPANLEAVKGAKNPKKAQERLDAALAALGN,soluble
12,MDTHKVFVNRIINMRKIKLIGLDMDHTLIRYNSKNFESLVYDLVKERLAESFHYPEEIKKFKFNFDDAIRGLVIDSKNGNILKLSRYGAIRLSYHGTKQISFSDQKKIYRSIYVDLGDPNYMAIDTSFSIAFCILYGQLVDLKDTNPDKMPSYQAIAQDVQYCVDKVHSDGTLKNIIIKNLKKYVIREKEVVEGLKHFIRYGKKIFILTNSEYSYSKLLLDYALSPFLDKGEHWQGLFEFVITLANKPRFFYDNLRFLSVNPENGTMTNVHGPIVPGVYQGGNAKKFTEDLGVGGDEILYIGDHIYGDILRLKKDCNWRTALVVEELGEEIASQIRALPIEKKIGEAMAIKKELEQKYVDLCTRSIDESSQQYDQEIHDLQLQISTVDLQISRLLQEQNSFYNPKWERVFRAGAEESYFAYQVDRFACIYMEKLSDLLEHSPMTYFRANRRLLAHDIDIAAALEHHHHHH,soluble
13,MGSDKIHHHHHHMAYSDTPEQSAVINWKGRHLVVNAFAGTGKTTTLVRYAQANPDRRMLYLAYNRAVRDDAERKFPFNVECKTSHQLAWMKFGKHLKPRLTPNLRITDVARKLNTRHWPLVRMALAALNHFLCSASPALSYEHLPDENNREGLDAGNILGAAQFLWNEMSRIDSTFPVTHDTYLKLFQLSVPDLSKRWDTILFDEAQDANPVISSLVLTQNCNVVLVGDRHQQIYRFRGADNALNAPVLEGADRLWLTQSFRFGSAVAEMANVLLARQEETHPVIGNGGDDDVIDRLPADVSRYTILSRTVAGVIGAALYESMKEKIVYWVGGIEGYKTEELEDLYWFSVDMPERMRTPRLSREYRDFEEYKSMTKATGDVEMNQAIGLLDKYFPLPQKLQVLRSQATTNEKDADVVVSTAHRSKGLEWDTVMLNDDFSDITDPLLSEAARTDETNLLYVATTRARKLLVRNELLKLLCEQEESDDIAEDQFTDSNLI,not soluble
14,MGSDKIHHHHHHMHVEDYMNETPACLLAMLTQTREDLWQAAKALTERGVTRIILTGSGTSYHGALTARSFMQQWCGLPVDVYWPFLLDDSALTLSDKALVIGISQGGGSLSTLAAMERARAAGHLTASMAGEAPAVIDRAADLVLTVPCGEERAGAKTKGYHCTILNLMLLGLAVASRQRRLSDEERKALLIRMDTTFNHLPTLIEASQAWVLNHARPLIDSADIRLTGPARLFGTVQEGALKMLETLRCPVAGYEFEEFIHGIYNAFDERSTLIMLDPFPDERQDRLAEILGGWTQHIYRIGPQVENNGKNMPFAFINDPDFAVFEYIIPLQMVCARLPPVKGIDPAIPKDPQFHQKMKSKQLN,not soluble
15,MGSDKIHHHHHHMGVMKTPGVYIVEKNAFPNSVVEVATAVPAFIGFTQKAINGNKSLLNKPWRITSMAEFRRYYGEAPEPEFEIAEKPADSLEDAAIVMGDKSYVISQSNTKYLLYYSMMLFFQNGGGPCYIVSVGNYTNDVEAAKLLAGIPTLLKEQEPTMLAIPEAILLAEDDCISVQQASLAHCGGVMRNRVAILDVWNGHLDRQDPSGDCIESFRSKLGINYLDFSSAYYPWLHTTIVQDSDLSFKNIANTDVLIGLLKEEVTASFTDLDGLTDDQLASPSNKLRVAKRDQMLTEVDSLATVAGDAQIVLLNKTLSSMSPLYMSILLDIKGKLNLLPPSACMAGIYTMVDNARGVWKAPANVSLNAVVSPAVNISHDEQEDLNVTTQGKSINAIRTFIGEGTLVWGARTLDGNSLDWRYISVRRTMIMLEESIRLAAKAYVFEPNTANTWTTLNSMITNFLTGIWKRGGLAGSVPADAFSVSVGLGSTMTSEDILEGILRITVLVAVTRPAEFIEITFQQQMQKS,not soluble
16,GPGSMPVPPPPPPPPPPPPPPPPPANSGGPSASVGGAAAAVFAEICQGGDNITARLRHVTDDQKMYKQNIRHGEVDMSELEHKKAAAEERRRAQQRTESTTGEEAAQPPVLTLEGDKRWVVKHQAGSPAVQLQLVLDKAEMRHAVRIENCHHAYITITNKVNSVSIVNCTKVQVALQVIVSSLEVLGCADVDVQVAQAAPTIDIERSTSVNVYLLDKDEARNTEIVTACSSTVNVLFPSEKEEDIVERAIPEQFVTRIVPDGKGGHKLCTKPSESF,soluble
17,MHILVTGFAPFDNQNINPSWEAVTQLEDIIGTHTIDKLKLPTSFKKVDNIINKTLASNHYDVVLAIGQAGGRNAITPERVAINIDDARIPDNDDFQPIDQAIHLDGAPAYFSNLPVKAMTQSIINQGLPGALSNSAGTFVCNHTLYHLGYLQDKHYPHLRFGFIHVPYIPEQVIGKPDTPSMPLEKIVAGLTAAIEAISNDEDLHLALGTTE,not soluble
18,MLMKVAEFERLFRQAAGLDVDKNDLKRVSDFLRNKLYDLLAVAERNAKYNGRDLIFEPDLPIAKGLQETLQEFRRMDTALELKPVLDALAALPPLDLEVAEDVRNLLPELAGALVVAYARVLKELDPALKNPQTEHHERAERVFNLLL,soluble
19,MSLASIDFRNKINWHRRYRSPQGVKTEHEILRIFESDRGRIINSPAIRRLQQKTQVFPLERNAAVRTRLTHSMEVQQVGRYIAKEILSRLKEQDRLEEYGLDALTGPFESIVEMACLMHDIGNPPFGHFGEAAINDWFRQRLHPEDAESQPLTHDRCVVSSLRLQEGEENLNDIRRKVRQDICHFEGNAQGIRLVHTLMRMNLTWAQVGGILKYTRPAWWRGPVPDSHRYLMKKPGYYLSEEKYIARLRKELQLAPYSRFPLTWIMEAADDISYCVADLEDAVEKRIFSVEQLYHHLYHAWCHHEKDSLFELVVGNAWEKSRANTLSRSTEDQFFMYLRVNTLNKLVPYAAQRFIDNLPQIFAGTFNQALLEDASGFSRLLELYKNVAVEHVFSHPDVEQLELQGYRVISGLLDIYQPLLSLSLNDFRELVEKERLKRFPIESRLFQKLSTRHRLAYVEVVSKLPTDSAEYPVLEYYYRCRLIQDYISGMTDLYAWDEYRRLMAVEQEGHHHHHH,soluble

# From the DeepSol protein solubility set
